This note sets out measurements from patent US20080200416A1.

In test [1] the target is agonist MCC I-E^k complex (mouse) (UniProt G3UW40). Description: cell-based or functional assay.
In test [2] the target is antagonist MCC 99R I-E^k complex (mouse) (UniProt P04224). Description: cell-based or functional assay.
Sequence of antagonist MCC 99R I-E^k complex (mouse) (P04224 26-216, one chain of several): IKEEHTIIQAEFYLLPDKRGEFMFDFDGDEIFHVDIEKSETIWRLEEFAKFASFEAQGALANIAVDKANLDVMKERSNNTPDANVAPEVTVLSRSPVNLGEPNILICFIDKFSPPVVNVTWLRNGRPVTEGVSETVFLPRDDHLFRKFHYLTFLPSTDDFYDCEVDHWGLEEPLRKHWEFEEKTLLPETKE

As to 5C.C7 TCR, in test [1], the half-maximal calcium response (EC50), control T cell blasts turned out to be 5 peptides and the half-maximal calcium response (EC50), miR-181a T cell blasts was 2 peptides. Further, the peak cytosolic calcium response, miR-181a T cell blasts in test [2] is above 2 fold.
